Test results taken from PMC5199193, “Structure of the transporter associated with antigen processing trapped by herpes simplex virus” (eLife, 2016).

Target: T1, transporter associated with antigen processing (TAP), heterodimer of TAP1 and TAP2 (human, UniProt Q03518 1-748; Q03519 1-686)
T1 construct: TAP1, human; TMD0 is in the construct (no density seen for it); TAP2, human; model holds residues 130-681; also called human TAP; source: lysed cells incubated with purified ICP47, solubilised in DDM, purified (IgG Sepharose, Superose 6); not shown: Protein A, C-terminal, cleaved
T1 sequence 1: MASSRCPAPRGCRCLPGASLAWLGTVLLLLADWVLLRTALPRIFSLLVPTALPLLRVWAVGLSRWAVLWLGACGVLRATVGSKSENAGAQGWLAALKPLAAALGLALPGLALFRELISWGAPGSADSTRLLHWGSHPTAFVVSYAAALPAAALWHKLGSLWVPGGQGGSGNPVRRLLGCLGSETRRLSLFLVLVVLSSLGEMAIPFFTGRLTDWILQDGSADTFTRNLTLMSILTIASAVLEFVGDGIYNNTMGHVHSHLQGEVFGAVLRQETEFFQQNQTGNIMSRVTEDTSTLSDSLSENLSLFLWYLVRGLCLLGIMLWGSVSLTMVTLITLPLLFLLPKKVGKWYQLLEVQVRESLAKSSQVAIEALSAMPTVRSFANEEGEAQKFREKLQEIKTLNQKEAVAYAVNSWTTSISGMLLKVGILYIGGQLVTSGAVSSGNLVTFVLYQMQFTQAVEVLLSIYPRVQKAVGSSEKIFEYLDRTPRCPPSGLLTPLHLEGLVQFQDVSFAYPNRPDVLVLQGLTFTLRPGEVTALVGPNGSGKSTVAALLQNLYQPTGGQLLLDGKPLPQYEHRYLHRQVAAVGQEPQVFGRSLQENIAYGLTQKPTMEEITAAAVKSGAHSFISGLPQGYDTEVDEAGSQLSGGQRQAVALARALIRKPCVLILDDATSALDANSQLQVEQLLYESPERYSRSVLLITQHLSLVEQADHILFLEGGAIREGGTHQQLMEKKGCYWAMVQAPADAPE
T1 sequence 2: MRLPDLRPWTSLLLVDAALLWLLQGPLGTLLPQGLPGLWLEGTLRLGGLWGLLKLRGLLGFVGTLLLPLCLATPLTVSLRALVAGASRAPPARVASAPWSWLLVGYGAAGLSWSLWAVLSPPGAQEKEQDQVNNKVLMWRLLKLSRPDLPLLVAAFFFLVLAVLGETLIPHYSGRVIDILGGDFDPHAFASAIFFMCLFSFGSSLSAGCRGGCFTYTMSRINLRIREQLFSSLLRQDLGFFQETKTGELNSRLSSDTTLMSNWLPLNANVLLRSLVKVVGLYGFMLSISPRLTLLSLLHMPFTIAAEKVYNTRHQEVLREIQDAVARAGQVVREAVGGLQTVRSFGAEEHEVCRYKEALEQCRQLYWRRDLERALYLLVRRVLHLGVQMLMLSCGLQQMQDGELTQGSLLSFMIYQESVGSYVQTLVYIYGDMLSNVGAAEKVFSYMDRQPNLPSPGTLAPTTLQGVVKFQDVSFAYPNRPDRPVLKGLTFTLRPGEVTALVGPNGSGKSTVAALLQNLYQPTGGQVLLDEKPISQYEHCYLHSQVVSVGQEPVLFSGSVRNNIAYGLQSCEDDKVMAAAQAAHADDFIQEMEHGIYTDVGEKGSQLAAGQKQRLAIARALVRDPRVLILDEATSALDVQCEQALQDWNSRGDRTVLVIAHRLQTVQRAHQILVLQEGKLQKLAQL
Test: cryo-EM structure; purified TAP/ICP47 complex (2 mg/ml) in 20 mM Hepes pH 7.4, 150 mM NaCl, 2 mM TCEP, 1 mM DDM, 1 mM C12E8; complex formed by incubating lysed Pichia cells co-expressing TAP1 and TAP2 with purified ICP47; 4.0 Å
Details: both partners purified

B1: ICP47 of herpes simplex virus 1 (natural protein)
chain: MSWALEMADTFLDTMRVGPRTYADVRDEINKRGREDREAARTAVHDPERPLLRSPGLLPEIAPNASLGVAHRRTGGTVTDSPRNPVTR
notes: ICP47, HSV-1; the N-terminal 55 residues are ordered and the C-terminal 33 residues have no density (88 residues together); also called HSV-1 ICP47; source: E. coli, purified via the GST tag
B1: binds.
